# Results published in publication PMC7026398, “Structural and functional insight into the effect of AFF4 dimerization on activation of HIV-1 proviral transcription” (Cell Discovery, 2020).
# B1: AFF1-THD (953-1210), wild type [not stated] / itself (parent)
# chain: GKPQVKFDKQQADLHMREAKKMKQKAELMTDRVGKAFKYLEAVLSFIECGIATESESQSSKSAYSVYSETVDLIKFIMSLKSFSDATAPTQEKIFAVLCMRCQSILNMAMFRCKKDIAIKYSRTLNKHFESSSKVAQAPSPCIASTGTPSPLSPMPSPASSVGSQSSAGSVGSSGVAATISTPVTIQNMTSSYVTITSHVLTAFDLWEQAEALTRKNKEFFARLSTNVCTLALNSSLVDLVHYTRQGFQQLQELTKTP
# B2: human AFF4-THD (902-1163), wild type [human] / itself (parent)
# chain: RRTKLVFDDRNYSADHYLQEAKKLKHNADALSDRFEKAVYYLDAVVSFIECGNALEKNAQESKSPFPMYSETVDLIKYTMKLKNYLAPDATAADKRLTVLCLRCESLLYLRLFKLKKENALKYSKTLTEHLKNSYNNSQAPSPGLGSKAVGMPSPVSPKLSPGNSGNYSSGASSASASGSSVTIPQKIHQMAASYVQVTSNFLYATEIWDQAEQLSKEQKEFFAELDKVMGPLIFNASIMTDLVRYTRQGLHWLRQDAKLIS
# Variants of: B1
# Assay: analytical gel filtration
# Conditions: with itself; read off a plot
row,Variant,screen value
1,GKPQVKFDKQQADLHMREAKKMKQKAELMTDRVGKAFKYLEAVLSFIECGIATESESQSSKSAYSVYSETVDLIKFIMSLKSFSDATAPTQEKIFAVLCMRCQSILNMAMFRCKKDIAIKYSRTLNKHFESSSKVAQAPSPCIASTGTPSPLSPMPSPASSVGSQSSAGSVGSSGVAATISTPVTIQNMTSSAVTITSHVLTAFDLWEQAEALTRKNKEFFARLSTNVCTLALNSSLVDLVHYTRQGFQQLQELTKTP [chain 1 Y193A],9.5 mL
2,GKPQVKFDKQQADLHMREAKKMKQKAELMTDRVGKAFKYLEAVLSFIECGIATESESQSSKSAYSVYSETVDLIKFIMSLKSFSDATAPTQEKIFAVLCMRCQSILNMAMARCKKDIAIKYSRTLNKHFESSSKVAQAPSPCIASTGTPSPLSPMPSPASSVGSQSSAGSVGSSGVAATISTPVTIQNMTSSYVTITSHVLTAFDLWEQAEALTRKNKEFFARLSTNVCTLALNSSLVDLVHYTRQGFQQLQELTKTP [chain 1 F111A],9.4 mL
3,GKPQVKFDKQQADLHMREAKKMKQKAELMTDRVGKAFKYLEAVLSFIECGIATESESQSSKSAYSVYSETVDLIKFIMSLKSFSDATAPTQEKIFAVLCMRCQSILNMAMARCKKDIAIKYSRTLNKHFESSSKVAQAPSPCIASTGTPSPLSPMPSPASSVGSQSSAGSVGSSGVAATISTPVTIQNMTSSAATITSHALTAFDLWEQAEALTRKNKEFFARLSTNVCTLALNSSLVDLVHYTRQGFQQLQELTKTP [chain 1 F111A Y193A V194A V200A],10.5 mL

# Variants of: B1
# Assay: sedimentation velocity analytical ultracentrifugation
# Conditions: with itself
row,Variant,screen value
1,GKPQVKFDKQQADLHMREAKKMKQKAELMTDRVGKAFKYLEAVLSFIECGIATESESQSSKSAYSVYSETVDLIKFIMSLKSFSDATAPTQEKIFAVLCMRCQSILNMAMARCKKDIAIKYSRTLNKHFESSSKVAQAPSPCIASTGTPSPLSPMPSPASSVGSQSSAGSVGSSGVAATISTPVTIQNMTSSAATITSHALTAFDLWEQAEALTRKNKEFFARLSTNVCTLALNSSLVDLVHYTRQGFQQLQELTKTP [chain 1 F111A Y193A V194A V200A],27.2 kD

# Same assay, conditions: with itself; read off a plot
row,Variant,screen value
1,GKPQVKFDKQQADLHMREAKKMKQKAELMTDRVGKAFKYLEAVLSFIECGIATESESQSSKSAYSVYSETVDLIKFIMSLKSFSDATAPTQEKIFAVLCMRCQSILNMAMARCKKDIAIKYSRTLNKHFESSSKVAQAPSPCIASTGTPSPLSPMPSPASSVGSQSSAGSVGSSGVAATISTPVTIQNMTSSAATITSHALTAFDLWEQAEALTRKNKEFFARLSTNVCTLALNSSLVDLVHYTRQGFQQLQELTKTP [chain 1 F111A Y193A V194A V200A],2.2 S

# Variants of: B2
# Assay: analytical gel filtration
# Conditions: with itself; read off a plot
row,Variant,screen value
1,RRTKLVFDDRNYSADHYLQEAKKLKHNADALSDRFEKAVYYLDAVVSFIECGNALEKNAQESKSPFPMYSETVDLIKYTMKLKNYLAPDATAADKRLTVLCLRCESLLYLRLAKLKKENALKYSKTLTEHLKNSYNNSQAPSPGLGSKAVGMPSPVSPKLSPGNSGNYSSGASSASASGSSVTIPQKIHQMAASYVQVTSNFLYATEIWDQAEQLSKEQKEFFAELDKVMGPLIFNASIMTDLVRYTRQGLHWLRQDAKLIS [chain 1 F113A],10.6 mL
2,RRTKLVFDDRNYSADHYLQEAKKLKHNADALSDRFEKAVYYLDAVVSFIECGNALEKNAQESKSPFPMYSETVDLIKYTMKLKNYLAPDATAADKRLTVLCLRCESLLYLRLAKLKKENALKYSKTLTEHLKNSYNNSQAPSPGLGSKAVGMPSPVSPKLSPGNSGNYSSGASSASASGSSVTIPQKIHQMAASAVQVTSNFLYATEIWDQAEQLSKEQKEFFAELDKVMGPLIFNASIMTDLVRYTRQGLHWLRQDAKLIS [chain 1 F113A Y195A],10.8 mL
3,RRTKLVFDDRNYSADHYLQEAKKLKHNADALSDRFEKAVYYLDAVVSFIECGNALEKNAQESKSPFPMYSETVDLIKYTMKLKNYLAPDATAADKRLTVLCLRCESLLYLRLFKLKKENALKYSKTLTEHLKNSYNNSQAPSPGLGSKAVGMPSPVSPKLSPGNSGNYSSGASSASASGSSVTIPQKIHQMAASAVQVTSNFLYATEIWDQAEQLSKEQKEFFAELDKVMGPLIFNASIMTDLVRYTRQGLHWLRQDAKLIS [chain 1 Y195A],10.9 mL

# Variants of: B2
# Assay: sedimentation velocity analytical ultracentrifugation
# Conditions: with itself
row,Variant,screen value
1,RRTKLVFDDRNYSADHYLQEAKKLKHNADALSDRFEKAVYYLDAVVSFIECGNALEKNAQESKSPFPMYSETVDLIKYTMKLKNYLAPDATAADKRLTVLCLRCESLLYLRLAKLKKENALKYSKTLTEHLKNSYNNSQAPSPGLGSKAVGMPSPVSPKLSPGNSGNYSSGASSASASGSSVTIPQKIHQMAASAVQVTSNFLYATEIWDQAEQLSKEQKEFFAELDKVMGPLIFNASIMTDLVRYTRQGLHWLRQDAKLIS [chain 1 F113A Y195A],28.9 kD

# Same assay, conditions: with itself; read off a plot
row,Variant,screen value
1,RRTKLVFDDRNYSADHYLQEAKKLKHNADALSDRFEKAVYYLDAVVSFIECGNALEKNAQESKSPFPMYSETVDLIKYTMKLKNYLAPDATAADKRLTVLCLRCESLLYLRLAKLKKENALKYSKTLTEHLKNSYNNSQAPSPGLGSKAVGMPSPVSPKLSPGNSGNYSSGASSASASGSSVTIPQKIHQMAASAVQVTSNFLYATEIWDQAEQLSKEQKEFFAELDKVMGPLIFNASIMTDLVRYTRQGLHWLRQDAKLIS [chain 1 F113A Y195A],2.2 S
